Measurements: patent US20180244754A1

Target: human GH receptor (hGHR) (human) (UniProt P10912)
Experiment: cell-based or functional assay

UniProt P10912, sequence (P10912 19-638): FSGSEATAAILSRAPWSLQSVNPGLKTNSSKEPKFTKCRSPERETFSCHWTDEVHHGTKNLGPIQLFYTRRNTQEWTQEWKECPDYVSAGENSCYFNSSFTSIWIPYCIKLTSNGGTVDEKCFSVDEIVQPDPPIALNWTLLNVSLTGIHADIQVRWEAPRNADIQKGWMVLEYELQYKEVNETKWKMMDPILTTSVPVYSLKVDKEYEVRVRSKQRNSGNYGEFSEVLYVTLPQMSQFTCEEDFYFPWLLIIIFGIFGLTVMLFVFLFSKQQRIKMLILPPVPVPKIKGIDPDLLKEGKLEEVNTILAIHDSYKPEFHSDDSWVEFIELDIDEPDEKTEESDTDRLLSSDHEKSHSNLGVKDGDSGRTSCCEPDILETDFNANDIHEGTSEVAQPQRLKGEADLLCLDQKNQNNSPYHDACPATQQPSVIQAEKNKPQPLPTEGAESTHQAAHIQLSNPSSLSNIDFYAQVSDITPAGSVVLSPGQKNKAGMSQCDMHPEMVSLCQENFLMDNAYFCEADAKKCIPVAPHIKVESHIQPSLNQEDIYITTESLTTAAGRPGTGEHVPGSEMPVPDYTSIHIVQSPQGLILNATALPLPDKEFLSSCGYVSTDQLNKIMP

Substance HSA-22KhGH (ligand) has an EC50 (nM), cell growth activity using BaF3/hGHR cells (absorbance at 490 nM) of 0.138 nM.

In the case of 22KhGH-mHSA (ligand), the EC50 (nM), cell growth activity using BaF3/hGHR cells (absorbance at 490 nM) was 1.2 nM and the EC50 of 22KhGH-mHSA relative to EC50 of mHSA-22KhGH, cell growth activity using BaF3/hGHR cells was 7.8 times.

Substance mHSA-22KhGH (ligand) has an EC50 (nM), cell growth activity using BaF3/hGHR cells (absorbance at 490 nM) of 0.153 nM.

Work on 22KhGH-HSA (ligand) yielded an EC50 (nM), cell growth activity using BaF3/hGHR cells (absorbance at 490 nM) of 0.878 nM and an EC50 of 22KhGH-HSA relative to EC50 of HSA-22KhGH, cell growth activity using BaF3/hGHR cells of 6.4 times.
